# Reference: the supplement of paper PMC7125110
# ± gives the standard error. For part of these data: Fewer inactive variants are shown than the library holds.
# B1: glmS ribozyme (parent)
# chain: AUAAAAGCGCCAGAACUACAGAAAUGUAGUUGACGAGGAGGAGGUUUAUCGAAUUUUCGGCGGAUGCCUCCAAA
# Key:
# Details in all cases: with glucosamine-6-phosphate
# glucosamine-6-phosphate [1] = variants of: B1; assay: kcat; higher = faster cleavage; RNA array
# In short: (§1)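 Over ~14 h at 37 °C, tiles were imaged as glucosamine-6-phosphate (40 μM to 10 mM) in HEPES/KCl/Mg(OAc)2 buffer flowed across sequenced MiSeq chips. The chips carried barcoded ribozyme variants transcribed in situ by E. coli RNA polymerase and tracked with a hybridised Cy3 probe. After normalisation to baseline and to non-cleaving reference variants, one- or two-exponential decay fits of per-tile medians gave kobs. kcat and KM followed from weighted Michaelis–Menten fits across concentrations.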
# glucosamine-6-phosphate [2] = variants of: B1; assay: KM; higher = weaker cofactor use; RNA array
# In short: as §1
# glucosamine-6-phosphate [3] = variants of: B1; assay: self-cleavage kobs at 160 uM GlcN6P; higher = faster cleavage; RNA array
# In short: as §1
# glucosamine-6-phosphate [4] = variants of: B1; assay: self-cleavage kobs at 640 uM GlcN6P; higher = faster cleavage; RNA array
# In short: as §1
# glucosamine-6-phosphate [5] = variants of: B1; assay: self-cleavage kobs at 2500 uM GlcN6P; higher = faster cleavage; RNA array
# In short: as §1
# glucosamine-6-phosphate [6] = variants of: B1; assay: self-cleavage kobs at 10000 uM GlcN6P; higher = faster cleavage; RNA array
# In short: as §1
# glucosamine-6-phosphate [7] = variants of: B1; assay: self-cleavage kobs at 40 uM GlcN6P; higher = faster cleavage; RNA array
# In short: as §1
Variant,kcat (glucosamine-6-phosphate [1]) [s⁻¹],KM (glucosamine-6-phosphate [2]) [µM],self-cleavage kobs at 160 uM GlcN6P (glucosamine-6-phosphate [3]) [s⁻¹],self-cleavage kobs at 640 uM GlcN6P (glucosamine-6-phosphate [4]) [s⁻¹],self-cleavage kobs at 2500 uM GlcN6P (glucosamine-6-phosphate [5]) [s⁻¹],self-cleavage kobs at 10000 uM GlcN6P (glucosamine-6-phosphate [6]) [s⁻¹],self-cleavage kobs at 40 uM GlcN6P (glucosamine-6-phosphate [7]) [s⁻¹]
U30C U45A,0.000449 ± 4.9e-05,1150 ± 280,5.04e-05 ± 1.7e-05,0.000176 ± 3.8e-05,0.000235 ± 8.7e-05,0.000418 ± 6e-05,–
U47G U56G,0.00559 ± 0.00071,1560 ± 280,0.000523 ± 0.00015,0.00151 ± 0.00034,0.00299 ± 0.00058,0.00556 ± 0.00097,0.000148 ± 2.2e-05
G38C G40A,< 1e-05,–,< 1e-05,–,–,< 1e-05,–
U49A U69G,5.15e-05 ± 2.2e-05,–,–,4.76e-05 ± 1.8e-05,8.54e-05 ± 1.8e-05,–,–
U47C U56A,0.00197 ± 0.00092,–,8.88e-05 ± 1.6e-05,0.000985 ± 0.00018,0.00159 ± 0.00039,0.00143 ± 0.00023,3.94e-05 ± 9.3e-06
C16G C61U C67U,< 1e-05,–,< 1e-05,–,–,< 1e-05,< 1e-05
C16G A48U,0.000805 ± 0.0004,–,< 1e-05,–,–,4.45e-05 ± 9.8e-06,< 1e-05
A48U U57C U69G C70U,< 1e-05,–,–,–,–,–,–
G29A U49G,6e-05 ± 8e-06,–,–,4.72e-05 ± 1.7e-05,4.32e-05 ± 1.4e-05,6.26e-05 ± 1.1e-05,–
G41C C58U,< 1e-05,–,< 1e-05,–,–,< 1e-05,< 1e-05
U31A U54G,0.0208 ± 0.0046,3520 ± 990,0.00075 ± 0.00015,0.00291 ± 0.00094,0.016 ± 0.0066,0.0152 ± 0.0024,0.00027 ± 3.9e-05
U31A A48U,9.44e-05 ± 4.1e-05,–,–,4.25e-05 ± 1.5e-05,5.43e-05 ± 1.6e-05,0.000133 ± 4.7e-05,–
U30G U55G,0.00756 ± 0.0019,1440 ± 590,–,0.00222 ± 0.00047,0.00378 ± 0.00086,0.00866 ± 0.0016,0.00025 ± 5.1e-05
A14C G41A,0.000497 ± 9e-05,3490 ± 1000,3.59e-05 ± 1.5e-05,6.95e-05 ± 1.3e-05,0.000234 ± 4.5e-05,0.000358 ± 6.2e-05,–
G41C U47C,3.99e-05 ± 4.8e-06,–,–,–,–,3.66e-05 ± 1.1e-05,–
G51A G62U,< 1e-05,–,< 1e-05,–,–,–,–

Variant,kcat (glucosamine-6-phosphate [1]) [s⁻¹],KM (glucosamine-6-phosphate [2]) [µM],self-cleavage kobs at 160 uM GlcN6P (glucosamine-6-phosphate [3]) [s⁻¹],self-cleavage kobs at 640 uM GlcN6P (glucosamine-6-phosphate [4]) [s⁻¹],self-cleavage kobs at 2500 uM GlcN6P (glucosamine-6-phosphate [5]) [s⁻¹],self-cleavage kobs at 10000 uM GlcN6P (glucosamine-6-phosphate [6]) [s⁻¹],self-cleavage kobs at 40 uM GlcN6P (glucosamine-6-phosphate [7]) [s⁻¹]
U55A G66U,0.00223 ± 0.00093,–,0.000202 ± 5.4e-05,0.000355 ± 7.1e-05,0.00136 ± 0.00021,0.00195 ± 0.00029,7.9e-05 ± 1.3e-05
A15U U54C,0.00568 ± 0.0015,1560 ± 660,0.000292 ± 0.0001,0.00189 ± 0.0003,0.00297 ± 0.00042,0.00553 ± 0.00066,0.000186 ± 2.3e-05
G13U A39U,0.0016 ± 0.0003,4770 ± 1400,4.9e-05 ± 1.9e-05,0.000197 ± 3.6e-05,0.000513 ± 8.1e-05,0.00112 ± 0.00016,3.33e-05 ± 1.6e-05
A42U U47G,3.95e-05 ± 1.3e-06,6570 ± 510,–,–,–,2.38e-05 ± 9e-06,< 1e-05
U31A U47C,0.0025 ± 0.0005,3290 ± 980,9.34e-05 ± 2.4e-05,0.000511 ± 0.00012,0.00117 ± 0.00017,0.00174 ± 0.00034,3.34e-05 ± 1.3e-05
G37A U65C,0.000108 ± 1.4e-05,2300 ± 1100,–,–,6.65e-05 ± 1.7e-05,8.61e-05 ± 1.1e-05,–
C50U C71A,2.1e-05 ± 3.7e-06,–,–,2.36e-05 ± 1.1e-05,2.3e-05 ± 8.6e-06,–,–
A12G U30A,0.00011 ± 1.9e-06,2890 ± 160,–,–,5.17e-05 ± 9.7e-06,8.52e-05 ± 7.5e-06,–
A12C A48G,5.38e-05 ± 6.8e-06,–,–,–,4.26e-05 ± 1.2e-05,4.66e-05 ± 7.1e-06,–
G7A C68U,2.24e-05 ± 5.5e-06,–,–,–,–,–,–
C11U U54C,0.00157 ± 0.00021,990 ± 210,0.000204 ± 9.2e-05,0.000616 ± 0.00017,0.00092 ± 0.00024,0.00167 ± 0.00033,6.42e-05 ± 1.2e-05
G41U C71U,0.000239 ± 3e-05,885 ± 270,4.38e-05 ± 8.4e-06,8.95e-05 ± 9.5e-06,0.000227 ± 2.9e-05,0.000214 ± 1.7e-05,1.98e-05 ± 8.9e-06
G44U A53C,0.000114 ± 1.6e-05,1360 ± 610,–,–,8.9e-05 ± 1.7e-05,9.5e-05 ± 1.6e-05,–
A6G A15U,7.69e-05 ± 9.2e-06,–,–,2.52e-05 ± 1e-05,7.01e-05 ± 1.2e-05,6.82e-05 ± 6.2e-06,< 1e-05
A15U U46G,0.000901 ± 0.00012,1650 ± 380,6.81e-05 ± 1e-05,0.000292 ± 3.4e-05,0.000642 ± 8.4e-05,0.000725 ± 7.1e-05,–
